Drawing on patent US20230056099, this text covers IC50 for six sequences.

The target in one data set is thrombin (human alpha-thrombin) (UniProt P00734+P00734). Nature of the data set: inhibition. Particulars: circular (5' and 3' ends joined); 0.1 nM thrombin, 2 uM fibrinogen, absorbance 350 nm; N = random nucleotide.
A word on the IC50: it is the concentration needed to halve the response being measured. Sequence “ATCTCGACTAGTCATAGGGGGCGCGAACATACGCGGTTGGTGTGGTTGGCTGACAANNNNNNNTTTTGGTGTCTCGGAT [M3]” came in with an IC50 of 180 pM.

For the sequence “ATCTCGACTAGTCATAGGGGGCGCGAACATACGCGGTTGGTGTGGTTGGCTGACAATACTCGTNNNNNNNGTCTCGGAT [M4]”, the half-inhibitory concentration (IC50) came to 100 pM.

Sequence “ATCTCGACTAGTCATAGGGGGCGCGAACATACGCGGTTGGTGTGGTTGGCTGACAATACTCGTTTTTGGTNNNNNNNNN [M5]” registered a 50% inhibitory concentration (IC50) of 110 pM.

Sequence “ATCTCGANNNNNNNTAGGGGGCGCGAACATACGCGGTTGGTGTGGTTGGCTGACAATACTCGTTTTTGGTGTCTCGGAT [M2]” came in with a 50% inhibitory concentration (IC50) of 360 pM.

“NNNNNNNCTAGTCATAGGGGGCGCGAACATACGCGGTTGGTGTGGTTGGCTGACAATACTCGTTTTTGGTGTCTCGGAT [M1]” yielded an IC50 of 370 pM.

Staying with this data set, now noted: circular; 0.1 nM thrombin, 2 uM fibrinogen, absorbance 350 nm; random pool carrying fixed GGTTGGTGTGGTTGG core.
As for “ATCTCGACTAGTCANNNNNNNNNNNNNNNNNNNNGGTTGGTGTGGTTGGNNNNNNNNNNNNNNNNNNNNTGTCTCGGAT [Lib (random circular nucleic acid)]”, the IC50 is 72100 pM.
